Laboratory results taken from the supplement of paper PMC10065799, “High-throughput profiling of sequence recognition by tyrosine kinases and SH2 domains using bacterial peptide display” (eLife, 2023).

What was measured:
AncSZ = experiment: phosphorylation enrichment, bacterial display (enrichment ratio); higher = better substrate or ligand; peptides without Tyr show the background
EPHB1 = EPHB1 (UniProt P54762); experiment: as above
EPHB2 = EPHB2 (UniProt P29323); experiment: as above
FGFR1 = FGFR1 (UniProt P11362); experiment: as above
FGFR3 = FGFR3 (UniProt P22607); experiment: as above
Fer (mouse) = experiment: as above
Fes = Fes (UniProt P07332); experiment: as above
Fyn = Fyn (UniProt P06241); experiment: as above
Hck = Hck (UniProt P08631); experiment: as above
Jak2 = Jak2 (UniProt O60674); experiment: as above
MERTK = MERTK (UniProt Q12866); experiment: as above
c-Abl (mouse) = experiment: as above
c-Src = experiment: as above
Grb2 SH2 = Grb2 SH2 (UniProt P62993); experiment: SH2 binding enrichment of the phosphorylated peptide, bacterial display (enrichment ratio); higher = better substrate or ligand; peptides without Tyr show the background
SHP2-C SH2 = experiment: as above
c-Src SH2 = experiment: as above
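Throughout, for SH2 binding enrichment of the phosphorylated peptide, bacterial display: peptide library displayed on the E. coli surface as eCPX fusions, selected cells deep-sequenced, score is each peptide's frequency after selection divided by its frequency in the input.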
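Throughout, for phosphorylation enrichment, bacterial display: 11-residue human phosphosite peptides and single-mutation variants displayed on the E. coli surface, counted by deep sequencing, each peptide's frequency after selection divided by its frequency in the unselected input library; frequency after pTyr selection over input frequency; kinase dosed for 20-30% of maximal phosphorylation in three min.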

Grb2 SH2, sequence (P62993 whole entry, looked up): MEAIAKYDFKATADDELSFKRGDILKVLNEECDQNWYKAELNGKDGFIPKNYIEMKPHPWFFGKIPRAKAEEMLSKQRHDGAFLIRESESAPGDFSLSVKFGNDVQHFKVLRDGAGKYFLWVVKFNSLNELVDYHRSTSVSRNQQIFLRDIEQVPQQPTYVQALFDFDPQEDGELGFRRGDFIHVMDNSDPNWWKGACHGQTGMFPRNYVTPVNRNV
Fes, sequence (P07332 whole entry, looked up): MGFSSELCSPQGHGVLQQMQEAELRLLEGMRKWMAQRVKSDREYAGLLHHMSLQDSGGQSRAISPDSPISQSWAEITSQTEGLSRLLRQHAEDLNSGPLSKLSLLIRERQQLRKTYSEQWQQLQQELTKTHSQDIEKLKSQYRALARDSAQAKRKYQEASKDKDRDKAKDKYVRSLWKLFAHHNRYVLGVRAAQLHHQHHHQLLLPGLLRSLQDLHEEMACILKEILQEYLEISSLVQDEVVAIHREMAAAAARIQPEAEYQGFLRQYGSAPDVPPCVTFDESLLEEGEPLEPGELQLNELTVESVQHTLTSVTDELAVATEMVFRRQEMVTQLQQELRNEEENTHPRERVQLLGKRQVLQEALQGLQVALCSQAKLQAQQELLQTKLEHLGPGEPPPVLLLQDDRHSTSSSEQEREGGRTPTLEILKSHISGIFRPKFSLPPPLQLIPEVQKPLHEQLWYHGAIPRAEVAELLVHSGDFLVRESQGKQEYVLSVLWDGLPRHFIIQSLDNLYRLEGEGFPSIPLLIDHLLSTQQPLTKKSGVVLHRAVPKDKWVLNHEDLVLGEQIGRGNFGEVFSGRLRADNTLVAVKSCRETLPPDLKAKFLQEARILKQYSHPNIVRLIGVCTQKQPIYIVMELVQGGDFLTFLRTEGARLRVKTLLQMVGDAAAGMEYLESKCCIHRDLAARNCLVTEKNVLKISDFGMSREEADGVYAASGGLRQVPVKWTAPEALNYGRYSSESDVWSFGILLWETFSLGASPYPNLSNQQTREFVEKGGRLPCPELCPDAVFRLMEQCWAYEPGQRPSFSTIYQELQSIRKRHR
FGFR1, sequence (P11362 whole entry, looked up): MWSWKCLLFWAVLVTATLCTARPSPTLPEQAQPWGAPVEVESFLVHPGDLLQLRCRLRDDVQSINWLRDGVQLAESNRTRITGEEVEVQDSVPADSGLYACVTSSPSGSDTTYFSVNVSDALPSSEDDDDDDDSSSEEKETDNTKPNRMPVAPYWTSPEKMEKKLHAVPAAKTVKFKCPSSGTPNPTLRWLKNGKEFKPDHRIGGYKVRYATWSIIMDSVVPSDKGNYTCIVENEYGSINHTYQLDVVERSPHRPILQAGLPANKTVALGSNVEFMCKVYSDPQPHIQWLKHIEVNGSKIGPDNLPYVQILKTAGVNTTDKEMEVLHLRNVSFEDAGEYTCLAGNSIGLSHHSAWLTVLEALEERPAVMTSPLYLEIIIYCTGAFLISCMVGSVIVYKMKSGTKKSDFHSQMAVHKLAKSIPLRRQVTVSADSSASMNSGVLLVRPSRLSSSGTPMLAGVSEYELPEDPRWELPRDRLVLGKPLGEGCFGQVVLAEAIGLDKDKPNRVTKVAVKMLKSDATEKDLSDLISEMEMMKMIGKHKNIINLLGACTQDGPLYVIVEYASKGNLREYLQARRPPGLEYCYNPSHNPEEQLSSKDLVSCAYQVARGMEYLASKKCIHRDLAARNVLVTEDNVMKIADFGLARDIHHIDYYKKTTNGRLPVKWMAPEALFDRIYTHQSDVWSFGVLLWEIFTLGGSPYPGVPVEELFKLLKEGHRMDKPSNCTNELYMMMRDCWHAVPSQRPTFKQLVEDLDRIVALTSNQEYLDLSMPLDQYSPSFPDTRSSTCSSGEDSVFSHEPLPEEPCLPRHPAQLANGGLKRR
Hck, sequence (P08631 whole entry, looked up): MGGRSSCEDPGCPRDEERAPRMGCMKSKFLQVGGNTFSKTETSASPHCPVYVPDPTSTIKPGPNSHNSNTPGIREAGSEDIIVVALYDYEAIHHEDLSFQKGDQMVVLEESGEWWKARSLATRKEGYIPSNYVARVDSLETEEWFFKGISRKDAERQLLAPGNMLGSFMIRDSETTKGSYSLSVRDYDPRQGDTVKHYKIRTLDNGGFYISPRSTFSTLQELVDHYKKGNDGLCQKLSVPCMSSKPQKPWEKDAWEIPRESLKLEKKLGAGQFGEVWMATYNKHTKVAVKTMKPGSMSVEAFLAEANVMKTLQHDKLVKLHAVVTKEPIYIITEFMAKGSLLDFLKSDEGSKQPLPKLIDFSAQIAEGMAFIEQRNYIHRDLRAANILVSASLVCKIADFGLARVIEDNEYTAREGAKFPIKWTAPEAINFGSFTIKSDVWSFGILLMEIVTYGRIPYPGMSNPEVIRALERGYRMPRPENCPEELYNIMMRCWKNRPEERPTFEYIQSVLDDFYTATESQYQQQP
EPHB1, sequence (P54762 whole entry, looked up): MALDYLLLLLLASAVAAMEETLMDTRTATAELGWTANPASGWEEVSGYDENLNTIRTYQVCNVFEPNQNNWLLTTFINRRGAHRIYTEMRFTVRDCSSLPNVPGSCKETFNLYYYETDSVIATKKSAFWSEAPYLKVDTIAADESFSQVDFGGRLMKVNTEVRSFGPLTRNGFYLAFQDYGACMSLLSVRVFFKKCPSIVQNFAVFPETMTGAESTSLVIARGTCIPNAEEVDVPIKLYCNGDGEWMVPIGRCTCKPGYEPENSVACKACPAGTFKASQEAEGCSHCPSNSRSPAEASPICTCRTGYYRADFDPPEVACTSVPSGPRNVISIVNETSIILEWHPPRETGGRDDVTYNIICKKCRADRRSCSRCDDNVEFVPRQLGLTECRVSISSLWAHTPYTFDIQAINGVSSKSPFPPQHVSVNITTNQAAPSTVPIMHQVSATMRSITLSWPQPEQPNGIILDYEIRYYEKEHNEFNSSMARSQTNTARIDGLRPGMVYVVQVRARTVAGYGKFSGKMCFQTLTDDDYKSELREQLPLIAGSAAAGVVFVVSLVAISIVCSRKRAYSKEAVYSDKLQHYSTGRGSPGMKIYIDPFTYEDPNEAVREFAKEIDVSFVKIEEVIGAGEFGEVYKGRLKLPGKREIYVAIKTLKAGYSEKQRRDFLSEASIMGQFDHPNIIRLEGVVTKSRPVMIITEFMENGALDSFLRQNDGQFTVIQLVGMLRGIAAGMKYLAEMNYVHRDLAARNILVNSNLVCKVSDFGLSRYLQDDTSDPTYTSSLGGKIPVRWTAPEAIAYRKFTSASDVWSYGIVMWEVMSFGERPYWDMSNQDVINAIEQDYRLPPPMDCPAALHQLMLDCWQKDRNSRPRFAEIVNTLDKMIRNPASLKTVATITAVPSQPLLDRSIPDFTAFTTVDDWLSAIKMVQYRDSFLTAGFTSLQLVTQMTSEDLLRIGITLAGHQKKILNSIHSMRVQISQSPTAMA
FGFR3, sequence (P22607 whole entry, looked up): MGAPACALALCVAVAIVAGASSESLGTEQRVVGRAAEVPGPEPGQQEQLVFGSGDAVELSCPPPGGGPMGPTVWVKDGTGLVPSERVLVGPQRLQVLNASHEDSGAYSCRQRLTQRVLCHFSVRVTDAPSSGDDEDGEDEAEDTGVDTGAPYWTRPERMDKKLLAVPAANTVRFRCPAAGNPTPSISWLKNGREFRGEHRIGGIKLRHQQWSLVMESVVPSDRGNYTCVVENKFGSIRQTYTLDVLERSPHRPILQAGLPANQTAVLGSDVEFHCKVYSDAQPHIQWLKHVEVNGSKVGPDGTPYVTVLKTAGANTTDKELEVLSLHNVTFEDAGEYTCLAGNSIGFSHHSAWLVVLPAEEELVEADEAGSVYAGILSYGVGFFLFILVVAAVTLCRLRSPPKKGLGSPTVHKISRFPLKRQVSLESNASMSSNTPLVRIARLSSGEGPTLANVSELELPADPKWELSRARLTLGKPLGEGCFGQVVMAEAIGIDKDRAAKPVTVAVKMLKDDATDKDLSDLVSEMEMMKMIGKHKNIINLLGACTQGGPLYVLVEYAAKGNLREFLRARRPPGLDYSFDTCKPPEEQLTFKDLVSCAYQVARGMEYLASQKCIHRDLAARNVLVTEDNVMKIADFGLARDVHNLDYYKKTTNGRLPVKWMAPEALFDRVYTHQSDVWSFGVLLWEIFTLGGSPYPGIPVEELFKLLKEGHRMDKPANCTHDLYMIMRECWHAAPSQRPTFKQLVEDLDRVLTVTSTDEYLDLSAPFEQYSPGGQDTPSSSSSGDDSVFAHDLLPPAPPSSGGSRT
Fyn, sequence (P06241 whole entry, looked up): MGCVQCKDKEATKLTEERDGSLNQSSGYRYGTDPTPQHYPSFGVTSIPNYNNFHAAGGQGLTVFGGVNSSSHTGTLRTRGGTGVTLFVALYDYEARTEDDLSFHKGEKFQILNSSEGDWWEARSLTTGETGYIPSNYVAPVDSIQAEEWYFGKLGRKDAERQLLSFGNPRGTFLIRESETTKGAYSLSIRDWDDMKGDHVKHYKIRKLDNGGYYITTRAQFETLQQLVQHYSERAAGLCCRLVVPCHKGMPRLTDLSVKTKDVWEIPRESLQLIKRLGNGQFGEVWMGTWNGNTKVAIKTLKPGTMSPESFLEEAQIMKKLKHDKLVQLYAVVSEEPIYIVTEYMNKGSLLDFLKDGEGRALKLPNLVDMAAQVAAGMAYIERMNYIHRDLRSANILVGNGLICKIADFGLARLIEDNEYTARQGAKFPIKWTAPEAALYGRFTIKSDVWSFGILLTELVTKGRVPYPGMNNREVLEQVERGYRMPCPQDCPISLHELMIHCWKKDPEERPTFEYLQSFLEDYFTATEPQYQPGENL

Sequence | phosphorylation enrichment (AncSZ) | phosphorylation enrichment (EPHB1) | phosphorylation enrichment (EPHB2) | phosphorylation enrichment (FGFR1) | phosphorylation enrichment (FGFR3) | phosphorylation enrichment (Fer (mouse)) | phosphorylation enrichment (Fes) | phosphorylation enrichment (Fyn) | phosphorylation enrichment (Hck) | phosphorylation enrichment (Jak2) | phosphorylation enrichment (MERTK) | phosphorylation enrichment (c-Abl (mouse)) | phosphorylation enrichment (c-Src) | SH2 binding enrichment (Grb2 SH2) | SH2 binding enrichment (SHP2-C SH2) | SH2 binding enrichment (c-Src SH2)
FSGDFYRIQGR [DDR2_Y741_YF] | 0.723 | 0.543 | 0.439 | 0.509 | 0.594 | 0.393 | 0.817 | 0.488 | 0.449 | 0.944 | 0.421 | 0.578 | 0.551 | 0.786 | 0.594 | 0.501
FSIAQYCCRMG [LRRK2_Y2023_G2019S_YF] | 0.839 | 0.684 | 5.07 | 0.479 | 0.57 | 0.4 | 0.868 | 0.401 | 0.449 | 0.758 | 0.994 | 1.03 | 0.425 | 1.17 | 0.826 | 0.981
FSPGSYERETF [NF1_Y2192] | 0.883 | 0.526 | 0.548 | 0.483 | 0.535 | 0.427 | 0.856 | 0.429 | 0.447 | 0.763 | 0.429 | 0.702 | 0.539 | 0.776 | 0.612 | 0.495
FSSLGYPLPEG [ZSWIM4_Y87_P89L_YF] | 0.747 | 0.372 | 0.446 | 0.413 | 0.472 | 0.394 | 0.722 | 0.446 | 0.525 | 0.635 | 0.519 | 0.501 | 0.42 | 1.02 | 1.07 | 0.589
FTNRSYDLDYD [MYC_Y12_N11S] | 1.24 | 0.542 | 0.841 | 0.561 | 0.745 | 0.488 | 1.13 | 0.565 | 0.632 | 0.804 | 0.512 | 0.645 | 0.576 | 0.717 | 0.418 | 2.51
GADAIYDHINE [UQCR10_Y44] | 1.03 | 0.91 | 1.03 | 0.5 | 0.563 | 2.82 | 0.953 | 5.57 | 6.65 | 0.777 | 3.14 | 0.689 | 4.96 | 0.704 | 0.561 | 0.678
GADDSYYTVRS [ZAP70_Y492_A495V] | 1.43 | 0.68 | 0.548 | 5.51 | 3.76 | 0.644 | 0.882 | 1.44 | 2.39 | 1.16 | 0.676 | 0.79 | 1.65 | 1.62 | 0.697 | 0.873
GASWRYRSGVS [NEU1_Y242_G243R] | 0.583 | 0.388 | 0.608 | 0.494 | 0.511 | 0.474 | 0.693 | 0.388 | 0.46 | 0.587 | 0.402 | 0.48 | 0.445 | 0.82 | 0.524 | 0.391
GAVDTYCRHNF [HLA-DRB1_Y107_A102G_YF] | 0.649 | 0.695 | 0.524 | 0.427 | 0.528 | 0.591 | 0.742 | 0.479 | 0.509 | 0.648 | 0.474 | 0.583 | 0.49 | 0.958 | 0.809 | 0.68
GCKKRYDKDKP [THAP1_Y14_N12K] | 0.833 | 0.449 | 0.534 | 0.506 | 0.703 | 0.445 | 0.702 | 0.396 | 0.452 | 0.529 | 0.6 | 0.621 | 0.531 | 0.755 | 0.386 | 0.337
GDYYRSLAEVA [YWHAG_Y133_Y133S] | 1.3 | 1.68 | 1.09 | 5.42 | 3.26 | 0.419 | 0.75 | 0.916 | 1.36 | 1.45 | 0.663 | 1.82 | 0.664 | 1.02 | 0.648 | 0.699
GEPLSYTRFSL [TFRC_Y20] | 0.833 | 0.438 | 0.455 | 0.452 | 0.545 | 0.554 | 0.935 | 0.443 | 0.52 | 2.21 | 0.567 | 1 | 0.83 | 0.901 | 0.519 | 0.558
GESVSYLFSHV [PRPS1_Y311] | 0.872 | 0.511 | 0.473 | 0.397 | 0.588 | 0.417 | 0.996 | 0.421 | 0.473 | 0.847 | 0.421 | 0.701 | 0.431 | 0.734 | 2.31 | 0.566
GFAIVYGTIIL [GPR179_Y460] | 1.19 | 0.644 | 0.592 | 0.441 | 0.84 | 0.514 | 1.32 | 0.431 | 0.502 | 1.28 | 0.389 | 1.31 | 0.462 | 0.604 | 0.547 | 0.364
GFEVVYVTEPI [HSP90AB1_Y512_M513V] | 1.1 | 0.344 | 0.465 | 0.443 | 0.605 | 0.444 | 0.959 | 0.424 | 0.549 | 0.983 | 0.386 | 0.641 | 0.591 | 0.802 | 0.454 | 0.495
GFKVRYATWSI [FGFR1_Y210_YF] | 1.11 | 0.714 | 0.534 | 0.463 | 0.795 | 0.512 | 1.22 | 0.494 | 0.512 | 0.997 | 0.499 | 0.711 | 0.392 | 1.64 | 1.63 | 1.16
GGGGSYNVFGN [HNRNPA1_Y312_D314V] | 0.65 | 0.404 | 0.523 | 0.467 | 0.515 | 0.419 | 0.742 | 0.441 | 0.424 | 0.723 | 0.457 | 0.652 | 0.488 | 0.833 | 0.747 | 0.52

Sequence | phosphorylation enrichment (AncSZ) | phosphorylation enrichment (EPHB1) | phosphorylation enrichment (EPHB2) | phosphorylation enrichment (FGFR1) | phosphorylation enrichment (FGFR3) | phosphorylation enrichment (Fer (mouse)) | phosphorylation enrichment (Fes) | phosphorylation enrichment (Fyn) | phosphorylation enrichment (Hck) | phosphorylation enrichment (Jak2) | phosphorylation enrichment (MERTK) | phosphorylation enrichment (c-Abl (mouse)) | phosphorylation enrichment (c-Src) | SH2 binding enrichment (Grb2 SH2) | SH2 binding enrichment (SHP2-C SH2) | SH2 binding enrichment (c-Src SH2)
GGQVFYNSEYG [FLT4_Y1333] | 0.719 | 0.402 | 0.442 | 0.376 | 0.558 | 0.36 | 0.779 | 0.456 | 0.462 | 0.751 | 0.467 | 0.497 | 0.521 | 0.648 | 0.707 | 0.435
GGSTYYIDTNA [ACTL6A_Y69_P66S] | 0.882 | 0.563 | 0.555 | 0.724 | 0.719 | 0.453 | 0.998 | 0.955 | 0.602 | 0.668 | 1.01 | 0.654 | 0.805 | 1.03 | 0.906 | 0.731
GGTTLYPGIAD [ACTC1_Y308_M307L] | 0.587 | 0.446 | 0.531 | 0.537 | 0.548 | 0.431 | 0.765 | 0.458 | 0.442 | 0.553 | 0.381 | 0.484 | 0.363 | 0.762 | 0.648 | 0.453
GHLYAYNWISI [BEST1_Y227_D228N] | 1.71 | 6.38 | 5.2 | 3.67 | 2.83 | 12 | 1.49 | 1.01 | 1.24 | 1.33 | 8.13 | 1.21 | 1.32 | 0.944 | 0.816 | 0.738
GIADDYDKKKP [EIF1_Y54_L59P] | 1.01 | 0.425 | 0.502 | 0.501 | 0.636 | 0.389 | 0.998 | 0.418 | 0.381 | 0.909 | 0.378 | 0.648 | 0.436 | 0.76 | 0.614 | 0.895
GILDVYIFLGP [GAA_Y340] | 1.27 | 0.787 | 0.792 | 0.864 | 1.02 | 0.381 | 1.44 | 0.505 | 0.676 | 1.21 | 0.701 | 0.866 | 0.7 | 0.768 | 0.79 | 0.44
GISDEYHVIRR [GCDH_Y398_H403R] | 0.983 | 0.529 | 0.541 | 1.46 | 0.881 | 0.471 | 0.792 | 0.517 | 1.5 | 0.719 | 0.457 | 0.607 | 0.621 | 0.833 | 0.889 | 0.835
GKSDPYHATTG [GJA1_Y247_S251T] | 0.396 | 0.287 | 0.254 | 0.374 | 0.409 | 0.38 | 0.506 | 0.345 | 0.413 | 0.41 | 0.319 | 0.476 | 0.361 | 0.771 | 0.778 | 0.416
GLGGGYGGASG [KRT8_Y54] | 0.429 | 0.376 | 0.359 | 0.398 | 0.367 | 0.348 | 0.534 | 0.344 | 0.316 | 0.379 | 0.285 | 0.448 | 0.317 | 0.692 | 0.62 | 0.369
GNLLIYTDFGK [HGD_Y166_E168D] | 1.08 | 3.06 | 1.27 | 0.682 | 0.702 | 0.726 | 1.27 | 4.75 | 3.49 | 1.09 | 3.44 | 1.53 | 4.63 | 0.891 | 0.822 | 0.765
GPCKAYELSQR [SETX_Y1297_R1294C] | 0.735 | 0.416 | 0.63 | 0.547 | 0.547 | 0.496 | 0.969 | 0.533 | 0.467 | 0.66 | 0.451 | 0.664 | 0.546 | 0.775 | 0.958 | 0.634
GPGSGYTNIMR [PKLR_Y564_R559G] | 0.553 | 0.48 | 0.398 | 0.35 | 0.47 | 0.362 | 0.496 | 0.391 | 0.444 | 0.533 | 0.393 | 0.827 | 0.412 | 3.4 | 7.01 | 7.2
GPIFRYDSGGA [CYP11B1_Y81_L83S] | 0.82 | 0.487 | 0.418 | 0.505 | 0.554 | 0.402 | 0.802 | 0.478 | 0.43 | 0.69 | 0.42 | 0.576 | 0.475 | 0.969 | 0.732 | 0.543
GPQSLYNGLVA [UCP2_Y79_R76Q] | 0.622 | 0.477 | 0.551 | 0.493 | 0.515 | 0.552 | 0.614 | 0.85 | 3.69 | 0.744 | 0.723 | 0.628 | 1.83 | 0.664 | 0.546 | 0.697
GQRDLYSGLNQ [CD3E_Y199] | 1.11 | 2.25 | 2.35 | 0.449 | 0.583 | 4.76 | 0.749 | 6.14 | 12.4 | 0.594 | 5.2 | 1.06 | 6.88 | 0.852 | 0.574 | 0.822
GRLPEYNTRIA [CCDC151_Y542] | 0.512 | 0.341 | 0.44 | 0.404 | 0.543 | 0.339 | 0.589 | 0.372 | 0.416 | 0.55 | 0.45 | 0.513 | 0.408 | 0.949 | 0.643 | 0.482
